In patent publication US20120164754, “KIT AND METHOD OF DETERMINING NUCLEOTIDE SEQUENCE OF TARGET NUCLEIC ACID” (SAMSUNG ELECTRONICS CO., LTD., published 2012):

Molecular target: Zif268-HMGa1-mCherry fusion protein (Mus musculus? (Zif268) / Homo sapiens …)
Test: SPR; about 140 nM; target immobilised on CM5 chip (Biacore)
Protocol: Affinity of the fusion proteins prepared in Example 1 to a target nucleic acid nucleotide sequence was measured using a surface plasmon resonance (SPR) system (Biacore) to determine the equilibrium dissociation constant, Kd, for forming the fusion protein-target nucleic acid complex. After immobilization of the target nucleic acid (SEQ ID NO. 9) to a CM5 chip, the fusion proteins were loaded into the microfluidic chamber of the SPR.

Sequence of Zif268-HMGa1-mCherry fusion protein (Mus musculus? (Zif268) / Homo sapiens …) (chain, as listed by the source): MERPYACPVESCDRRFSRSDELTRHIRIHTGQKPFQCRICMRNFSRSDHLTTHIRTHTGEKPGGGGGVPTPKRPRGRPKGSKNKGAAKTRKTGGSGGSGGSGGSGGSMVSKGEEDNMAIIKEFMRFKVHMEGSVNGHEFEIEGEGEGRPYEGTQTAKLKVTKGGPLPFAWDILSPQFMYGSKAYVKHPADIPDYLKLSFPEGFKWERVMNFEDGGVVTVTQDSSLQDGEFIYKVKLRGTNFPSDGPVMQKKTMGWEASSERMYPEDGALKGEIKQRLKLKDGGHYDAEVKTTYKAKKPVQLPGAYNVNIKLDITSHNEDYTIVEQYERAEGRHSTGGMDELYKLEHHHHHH

B1: target nucleic acid (Zif268 target) (dsDNA)
DNA 1: GTGTGTGTGTGATCTGCGTGGGCGGTAAG
DNA 2: CTTACCGCCCACGCAGATCACACACACAC
In the case of B1, the Kd is reported as 140 nM.
